{
  "source": "paper PMC5469197",
  "about": "“ANGUSTIFOLIA, a Plant Homolog of CtBP/BARS Localizes to Stress Granules and Regulates Their Formation” (Frontiers in Plant Science, 2017)",
  "assay_in_all_cases": "co-IP; LUMIER in HEK293TN cells: Prot-A fusion co-transfected with Renilla luciferase fusion (AN always the luciferase fusion with the interactors); luciferase activity before (input) and after pulldown; percentage pulldown = pulldown/input x 100; empty vectors as negative control; positive if more than two times the background",
  "key": {"[1]": {"biological_target": "PROTEIN KINASE SU… PROTEIN (AIK1), Prot-A fusion (Arabidopsis thaliana)", "sequence (main, as listed by the source)": "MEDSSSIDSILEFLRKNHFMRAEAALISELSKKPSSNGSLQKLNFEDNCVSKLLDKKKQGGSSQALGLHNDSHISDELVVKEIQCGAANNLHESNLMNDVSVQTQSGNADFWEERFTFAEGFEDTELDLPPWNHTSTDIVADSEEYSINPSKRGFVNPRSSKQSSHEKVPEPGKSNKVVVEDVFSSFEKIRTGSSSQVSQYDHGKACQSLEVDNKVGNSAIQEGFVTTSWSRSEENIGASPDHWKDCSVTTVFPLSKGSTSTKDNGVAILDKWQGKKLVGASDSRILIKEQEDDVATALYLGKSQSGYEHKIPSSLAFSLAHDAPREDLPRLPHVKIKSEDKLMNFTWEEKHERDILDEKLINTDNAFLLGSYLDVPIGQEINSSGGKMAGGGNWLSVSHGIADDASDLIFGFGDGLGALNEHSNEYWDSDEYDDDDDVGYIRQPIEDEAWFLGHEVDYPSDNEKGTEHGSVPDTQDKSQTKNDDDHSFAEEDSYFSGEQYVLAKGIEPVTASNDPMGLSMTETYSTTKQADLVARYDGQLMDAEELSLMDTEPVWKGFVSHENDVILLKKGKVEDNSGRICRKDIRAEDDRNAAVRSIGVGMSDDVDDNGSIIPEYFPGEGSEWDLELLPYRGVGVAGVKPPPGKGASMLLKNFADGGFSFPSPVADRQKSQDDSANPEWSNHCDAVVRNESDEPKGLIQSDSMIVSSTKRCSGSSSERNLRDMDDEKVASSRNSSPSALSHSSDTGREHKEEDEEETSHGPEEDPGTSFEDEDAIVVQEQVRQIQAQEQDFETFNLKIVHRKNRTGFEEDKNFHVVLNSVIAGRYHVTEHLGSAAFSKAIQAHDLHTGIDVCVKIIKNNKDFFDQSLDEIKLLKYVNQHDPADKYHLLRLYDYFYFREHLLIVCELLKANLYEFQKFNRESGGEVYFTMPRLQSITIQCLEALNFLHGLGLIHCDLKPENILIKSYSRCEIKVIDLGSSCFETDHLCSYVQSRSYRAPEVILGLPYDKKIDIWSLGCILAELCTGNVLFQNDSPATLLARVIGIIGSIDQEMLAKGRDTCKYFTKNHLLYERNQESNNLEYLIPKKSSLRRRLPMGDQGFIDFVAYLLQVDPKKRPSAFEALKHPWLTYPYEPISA"}, "[2]": {"biological_target": "T1, KH DOMAIN-CONTAINING PROTEIN (AT2G38610), Prot-A fusion (Arabidopsis thaliana, UniProt Q9ZVI3 1-286)", "T1 construct": "KH domain-containing protein, Arabidopsis thaliana, AT2G38610; CDS amplified from Col-0 cDNA; source: HEK293TN cells, transfected; not shown: Protein A (Staphylococcus aureus), N-terminal, kept", "T1 sequence (looked up)": "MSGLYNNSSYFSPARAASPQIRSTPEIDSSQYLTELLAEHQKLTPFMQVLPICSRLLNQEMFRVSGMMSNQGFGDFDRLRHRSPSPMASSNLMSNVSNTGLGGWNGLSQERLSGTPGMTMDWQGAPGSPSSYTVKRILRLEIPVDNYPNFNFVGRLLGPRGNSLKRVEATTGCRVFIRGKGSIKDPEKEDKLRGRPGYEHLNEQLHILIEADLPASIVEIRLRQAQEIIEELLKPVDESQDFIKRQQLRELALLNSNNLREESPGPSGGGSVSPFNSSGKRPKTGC", "settings": "partners not purified"}, "[3]": {"biological_target": "T2, GLYCINE-RICH RNA-BINDING PROTEIN 2 (GRP2), Prot-A fusion (Arabidopsis thaliana, UniProt Q9SVM8 35-158)", "T2 construct": "CDS amplified from Col-0 cDNA; source: HEK293TN cells, transfected; not shown: Protein A (Staphylococcus aureus), N-terminal, kept", "T2 sequence (looked up)": "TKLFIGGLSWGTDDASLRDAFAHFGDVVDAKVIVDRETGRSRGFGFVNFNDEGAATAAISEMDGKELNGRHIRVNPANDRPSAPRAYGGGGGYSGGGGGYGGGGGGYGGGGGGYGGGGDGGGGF", "settings": "partners not purified"}, "[4]": {"biological_target": "T3, RNA BINDING PROTEIN 47C (RBP47C), Prot-A fusion (Arabidopsis thaliana, UniProt Q9SX79 1-432)", "T3 construct": "RBP47C, Arabidopsis thaliana, AT1G47490; CDS amplified from Col-0 cDNA; source: HEK293TN cells, transfected; not shown: Protein A (Staphylococcus aureus), N-terminal, kept", "T3 sequence (looked up)": "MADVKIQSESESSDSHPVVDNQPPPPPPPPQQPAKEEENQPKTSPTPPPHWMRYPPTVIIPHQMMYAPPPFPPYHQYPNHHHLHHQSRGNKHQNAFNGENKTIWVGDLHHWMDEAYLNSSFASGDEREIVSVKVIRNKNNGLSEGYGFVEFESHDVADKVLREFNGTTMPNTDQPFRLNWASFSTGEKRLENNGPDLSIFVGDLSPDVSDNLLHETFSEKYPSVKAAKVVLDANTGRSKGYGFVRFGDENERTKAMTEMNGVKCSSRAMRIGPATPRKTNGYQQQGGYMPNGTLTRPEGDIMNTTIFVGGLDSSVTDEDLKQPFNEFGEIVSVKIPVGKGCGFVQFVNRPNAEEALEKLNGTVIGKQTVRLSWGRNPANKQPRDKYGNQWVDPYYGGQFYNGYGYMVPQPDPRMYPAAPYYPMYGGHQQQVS", "settings": "partners not purified"}, "[5]": {"biological_target": "T4, POLY(A) BINDING PROTEIN 2 (PAB2), Prot-A fusion (Arabidopsis thaliana, UniProt P42731 1-629)", "T4 construct": "CDS amplified from Col-0 cDNA; also called AtPAB2; source: HEK293TN cells, transfected; not shown: Protein A (Staphylococcus aureus), N-terminal, kept", "T4 sequence (looked up)": "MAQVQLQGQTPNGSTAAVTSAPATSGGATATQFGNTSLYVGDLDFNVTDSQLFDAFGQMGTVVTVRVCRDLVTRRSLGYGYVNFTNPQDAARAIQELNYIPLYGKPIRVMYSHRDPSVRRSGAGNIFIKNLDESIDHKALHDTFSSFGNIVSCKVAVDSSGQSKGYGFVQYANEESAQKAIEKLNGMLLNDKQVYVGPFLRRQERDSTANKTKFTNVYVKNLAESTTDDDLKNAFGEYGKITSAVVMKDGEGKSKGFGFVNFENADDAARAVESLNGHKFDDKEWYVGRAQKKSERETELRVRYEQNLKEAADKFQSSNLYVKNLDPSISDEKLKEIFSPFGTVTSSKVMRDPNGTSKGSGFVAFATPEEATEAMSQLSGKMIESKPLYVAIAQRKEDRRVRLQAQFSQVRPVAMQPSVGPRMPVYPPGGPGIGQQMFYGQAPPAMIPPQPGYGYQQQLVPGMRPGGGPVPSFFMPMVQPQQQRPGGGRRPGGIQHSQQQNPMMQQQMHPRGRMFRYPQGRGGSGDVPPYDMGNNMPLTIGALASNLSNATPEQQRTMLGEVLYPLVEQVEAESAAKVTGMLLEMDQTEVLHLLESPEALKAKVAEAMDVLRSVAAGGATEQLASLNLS", "settings": "partners not purified"}},
  "data": [
    {"binder": "AN, Renilla luciferase fusion (LUMIER) (natural protein, Arabidopsis thaliana, UniProt O23702 1-636, looked up, ANGUSTIFOLIA (AN), Arabidopsis thaliana, AT1G01510; CDS amplified from Col-0 cDNA; in the dimerisation test the second copy must have been the N-terminal protein A fusion (surmised from the LUMIER format); also called wild-type AN; source: HEK293TN cells, transfected; not shown: Renilla reniformis luciferase, N-terminal, kept) MSKIRSSATMPHRDQPSPASPHVVTLNCIEDCALEQDSLAGVAGVEYVPLSRIADGKIESATAVLLHSLAYLPRAAQRRLRPHQLILCLGSADRAVDSTLAADLGLRLVHVDTSRAEEIADTVMALILGLLRRTHLLSRHALSASGWLGSLQPLCRGMRRCRGMVLGIVGRSVSARYLASRSLAFKMSVLYFDVPEGDEERIRPSRFPRAARRMDTLNDLLAASDVISLHCALTNDTVQILNAECLQHIKPGAFLVNTGSCQLLDDCAVKQLLIDGTIAGCALDGAEGPQWMEAWVKEMPNVLILPRSADYSEEVWMEIREKAISILHSFFLDGVIPSNTVSDEEVEESEASEEEEQSPSKHEKLAIVESTSRQQGESTLTSTEIVRREASELKESLSPGQQHVSQNTAVKPEGRRSRSGKKAKKRHSQQKYMQKTDGSSGLNEESTSRRDDIAMSDTEEVLSSSSRCASPEDSRSRKTPLEVMQESSPNQLVMSSKKFIGKSSELLKDGYVVALYAKDLSGLHVSRQRTKNGGWFLDTLSNVSKRDPAAQFIIAYRNKDTVGLRSFAAGGKLLQINRRMEFVFASHSFDVWESWSLEGSLDECRLVNCRNSSAVLDVRVEILAMVGDDGITRWID", "values": [
      {"measurement": "fold change from background", "setting": "[1]", "value": 223, "unit": "fold"},
      {"measurement": "percentage pulldown", "setting": "[1]", "value": 36, "unit": "%"},
      {"measurement": "fold change from background", "setting": "[2]", "value": 2.93, "unit": "fold"},
      {"measurement": "percentage pulldown", "setting": "[2]", "value": 0.28, "unit": "%"},
      {"measurement": "fold change from background", "setting": "[3]", "value": 2.52, "unit": "fold"},
      {"measurement": "percentage pulldown", "setting": "[3]", "value": 0.24, "unit": "%"},
      {"measurement": "fold change from background", "setting": "[4]", "value": 4.97, "unit": "fold"},
      {"measurement": "percentage pulldown", "setting": "[4]", "value": 0.46, "unit": "%"},
      {"measurement": "fold change from background", "setting": "[5]", "value": 7.67, "unit": "fold"},
      {"measurement": "percentage pulldown", "setting": "[5]", "value": 0.71, "unit": "%"}
    ]}
  ]
}
